Test results from the supplement of paper PMC12042874.
± gives the uncertainty stated by the source.

experiment: amyloid nucleation score (Sup35N fusion, yeast selection) (log enrichment); library NNK2; higher = more nucleation; inactive = no reads after selection
Outline: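 For the nucleation score, DiMSum gave the log enrichment of output over input reads, centred on the mode score of non-aggregating sequences. Psi-negative yeast expressing Sup35N fused to peptides of 20 random codons were induced with 100 μM copper sulfate for 24 hours and grown 7 days at 30°C on medium lacking adenine and uracil. Input and output plasmid inserts were Illumina-sequenced, and sequences with under 100 input reads were excluded.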

Substance | amyloid nucleation score
LTRLFYPWK | -0.14 ± 1.1
LTSGQEGG | 0.047 ± 0.45
LTSMRRCPGVYVGNCGVAGR | 1 ± 0.35
LTTPGQNLLILWTLSNMFMI | inactive
LTTSIL | -1.06 ± 0.39
LTVTW | 1.2 ± 0.21
LTWFWMHSYSSFRIENHVDD | 2.18 ± 0.12
LTYNISQCYILFFVYITGHD | inactive
LVAFFFVSPFGGGHIAIRLR | -0.114 ± 1.1
LVAIDSAFCTLGMPSADPVS | -0.097 ± 0.25
LVCSNWCIVPFMYGTRHRKE | 9.299 ± 0.03
LVFDRFDGNFNRSMSVAVRV | -0.211 ± 0.39
LVFFSLDFYYRGWHRDWIAG | -1.26 ± 0.64
LVKNSIKRGYL | inactive
LVKTFYKKWIVREREFWILR | -0.176 ± 1.1
LVLENHWYLLVCRNPVQ | -0.213 ± 0.65
LVLIFMDLSTGWLLSSISDI | 2.33 ± 0.066
LVLNKNCLKVI | -0.426 ± 0.6
LVLRRWMSVRYFMGLTMKVR | inactive
LVNNGRVLSCYICV | 9.171 ± 0.056
LVPGYWYMWVTGNVKRVFCD | -1.54 ± 0.62
LVRLFS | -0.701 ± 0.63

Substance | amyloid nucleation score
LVRMIIVYTCRW | 0.533 ± 0.33
LVSIPSWCPTLASQKLIPR | 2.94 ± 0.19
LVSMAIECHLLYLLE | 0.931 ± 0.47
LVSNSSLSYPLDSYGSSRSD | -0.113 ± 0.49
LVSYV | -0.873 ± 0.76
LVTEVEFMSTAAGKECYCNI | -0.555 ± 0.35
LVVVKFTEVKALCFSVWGMG | 1.05 ± 0.57
LVWTVPTGVLFRHGC | 1.57 ± 0.24
LVYLIGSGNLQRISFPQRRV | 5.51 ± 0.067
LWDMIRNGC | -0.769 ± 0.45
LWGVYD | -0.212 ± 0.65
LWITTGNGGVPV | -0.144 ± 0.45
LWIVMVVRTTQQTYATMGHG | 0.955 ± 0.29
LWLGLFGCVVLHGFRIKMAL | 0.251 ± 0.35
LWLVSRRNACFA | -0.408 ± 1
LWNSIDNS | inactive
LWRGRIFLICFRSRDSNMCL | inactive
LWRILVALFAISILRTLVMQ | 1.63 ± 0.2
LWRVGHVHSWICPAICHGKC | 4.37 ± 0.057
LWSEGMTLASADCR | 0.721 ± 0.22
LWSLLLWLPTYRYRLYLFGA | -0.113 ± 0.79
LWVVILGVGTSSNESYCKYV | -0.427 ± 0.45

Substance | amyloid nucleation score
LYFASVNQTNSFLRIL | 2.93 ± 0.073
LYFWPLTFRSGHCCGLSQVK | 1.16 ± 0.61
LYHPACSAFSRSFCVKFLYW | -0.837 ± 0.61
LYIASSSLHCGLDVAW | -0.298 ± 0.49
LYINGEISVVIRIWFGPLVV | 0.517 ± 0.53
LYISQSCGRHD | -0.554 ± 0.22
LYIVDPSTASKAHTSSLPKS | -0.324 ± 0.55
LYLEMMCAIVWQQSYRHNRT | 0.727 ± 0.13
LYLRRWSPGLVMIQYPIILW | 0.545 ± 0.42
LYLTSNIFLCLIYDL | 0.576 ± 0.18
LYLVEARVTLYILGPWVVSR | 0.927 ± 0.45
LYLYGDYV | 7.65 ± 0.079
LYMYKNAKVLVSHLYYWYNY | inactive
LYPRPPYSRWIIANHSNWGS | 0.218 ± 0.8
LYRFSSLLWLSVSSSCDIV | inactive
LYSCCLQCSSTNSIYEDLMC | inactive
LYSESIVLFAYGFNGDGGLY | -0.67 ± 0.29
LYTLVFIKNFISMYLREILT | -1.8 ± 0.48
LYTMNLHYFLLFEESVS | -0.835 ± 0.28
MADTPSNFKYYLPKLFKG | inactive
MAGLTSWCGPHHTVWLTWNG | 0.939 ± 0.3
MAHWSSSNSTVVLGCLAWML | 6.17 ± 0.081

Substance | amyloid nucleation score
MAKSCGRSCTCSRSKVSVGG | 0.52 ± 0.57
MASTIWIMLVYDLNARKMHI | 4.87 ± 0.073
MATDDIN | -0.359 ± 0.79
MCFSIRPPGVMRVMHLTLVW | 0.135 ± 0.79
MCHVKFIT | 3.18 ± 0.067
MCYCLYNVGPCGDGH | 1.23 ± 0.28
MCYHDSVNNERINMGVLLHV | 0.067 ± 0.56
MDCILNYFFVLLLGHGNLLM | -0.826 ± 0.54
MDGIGTFNLSENR | inactive
MDIFCYTGRPTSAKRAS | -1.05 ± 0.64
MDKCETEMYIMSAHVFRRLW | 6.229 ± 0.048
MDLVCVAKSDVQACTYSAPV | 1.1 ± 0.39
MDLYCD | inactive
MDTVMRLYVCVCCRSFLRIG | 1.62 ± 0.35
MEGITRFSPPKNSEYIVLAG | -0.613 ± 0.44
MFAFMNFRRTIVVYEVWGSY | inactive
MFAVLSLDRGYHKAR | -0.205 ± 0.55
MFAVLTGSIFKWKWWTIGFR | -0.265 ± 0.28
MFCGDSCSTVPCCVCICFLY | 5.02 ± 0.058
